Data published in US20210054097A1.
Positions count from the first letter of the chain named.

Experiments:
Test in all cases: peptide ELISA
[1] = biological target: T1, FX activation peptide 12-mer … (human)
T1 sequence (peptide, C-terminally conjugated to biotin): LLDFNQTQPERG

[2] = biological target: T2, FX activation peptide 12-mer … (human); remark: listed apart in the source
T2 sequence (peptide, C-terminally conjugated to biotin): DLLDFNQTQPER

[3] = biological target: T3, FX activation peptide 12-mer … (human); remark: listed apart in the source
T3 sequence (peptide, C-terminally conjugated to biotin): TSSSGEAPDSIT

[4] = biological target: T4, FX activation peptide 12-mer … (human); remark: listed apart in the source
T4 sequence (peptide, C-terminally conjugated to biotin): SGEAPDSITWKP

[5] = biological target: T5, FX activation peptide 12-mer … (human); remark: listed apart in the source
T5 sequence (peptide, C-terminally conjugated to biotin): DSITWKPYDAAD

[6] = biological target: T6, FX activation peptide 12-mer … (human); remark: listed apart in the source
T6 sequence (peptide, C-terminally conjugated to biotin): PTENPFDLLDFN

[7] = biological target: T7, FX activation peptide 12-mer … (human); remark: listed apart in the source
T7 sequence (peptide, C-terminally conjugated to biotin): PYDAADLDPTEN

[8] = biological target: T8, FX activation peptide 12-mer … (human); remark: listed apart in the source
T8 sequence (peptide, C-terminally conjugated to biotin): LDPTENPFDLLD

[9] = biological target: T9, FX activation peptide 12-mer … (human); remark: listed apart in the source
T9 sequence (peptide, C-terminally conjugated to biotin): ATSSSGEAPDSI

[10] = biological target: T10, FX activation peptide 12-mer … (human); remark: listed apart in the source
T10 sequence (peptide, C-terminally conjugated to biotin): EAPDSITWKPYD

[11] = biological target: T11, FX activation peptide 12-mer … (human); remark: listed apart in the source
T11 sequence (peptide, C-terminally conjugated to biotin): PFDLLDFNQTQP

[12] = biological target: T12, FX activation peptide 12-mer … (human); remark: listed apart in the source
T12 sequence (peptide, C-terminally conjugated to biotin): GEAPDSITWKPY

[13] = biological target: T13, FX activation peptide 12-mer … (human); remark: listed apart in the source
T13 sequence (peptide, C-terminally conjugated to biotin): VAQATSSSGEAP

[14] = biological target: T14, FX activation peptide 12-mer … (human); remark: listed apart in the source
T14 sequence (peptide, C-terminally conjugated to biotin): SITWKPYDAADL

[15] = biological target: T15, FX activation peptide 12-mer … (human); remark: listed apart in the source
T15 sequence (peptide, C-terminally conjugated to biotin): FDLLDFNQTQPE

[16] = biological target: T16, FX activation peptide 12-mer … (human); remark: listed apart in the source
T16 sequence (peptide, C-terminally conjugated to biotin): SSGEAPDSITWK

[17] = biological target: T17, FX activation peptide 12-mer … (human); remark: listed apart in the source
T17 sequence (peptide, C-terminally conjugated to biotin): NQTQPERGDNNL

[18] = biological target: T18, FX activation peptide 12-mer … (human); remark: listed apart in the source
T18 sequence (peptide, C-terminally conjugated to biotin): YDAADLDPTENP

[19] = biological target: T19, FX activation peptide 12-mer … (human); remark: listed apart in the source
T19 sequence (peptide, C-terminally conjugated to biotin): TENPFDLLDFNQ

[20] = biological target: T20, FX activation peptide 12-mer … (human); remark: listed apart in the source
T20 sequence (peptide, C-terminally conjugated to biotin): APDSITWKPYDA

[21] = biological target: T21, FX activation peptide 12-mer … (human); remark: listed apart in the source
T21 sequence (peptide, C-terminally conjugated to biotin): ITWKPYDAADLD

[22] = biological target: T22, FX activation peptide 12-mer … (human); remark: listed apart in the source
T22 sequence (peptide, C-terminally conjugated to biotin): PDSITWKPYDAA

[23] = biological target: T23, FX activation peptide 12-mer … (human); remark: listed apart in the source
T23 sequence (peptide, C-terminally conjugated to biotin): NPFDLLDFNQTQ

[24] = biological target: T24, FX activation peptide 12-mer … (human); remark: listed apart in the source
T24 sequence (peptide, C-terminally conjugated to biotin): DLDPTENPFDLL

[25] = biological target: T25, FX activation peptide 12-mer … (human); remark: listed apart in the source
T25 sequence (peptide, C-terminally conjugated to biotin): FNQTQPERGDNN

[26] = biological target: T26, FX activation peptide 12-mer … (human); remark: listed apart in the source
T26 sequence (peptide, C-terminally conjugated to biotin): ENPFDLLDFNQT

[27] = biological target: T27, FX activation peptide 12-mer … (human); remark: listed apart in the source
T27 sequence (peptide, C-terminally conjugated to biotin): TWKPYDAADLDP

[28] = biological target: T28, FX activation peptide 12-mer … (human); remark: listed apart in the source
T28 sequence (peptide, C-terminally conjugated to biotin): DFNQTQPERGDN

[29] = biological target: T29, FX activation peptide 12-mer … (human); remark: listed apart in the source
T29 sequence (peptide, C-terminally conjugated to biotin): DPTENPFDLLDF

[30] = biological target: T30, FX activation peptide 12-mer … (human); remark: listed apart in the source
T30 sequence (peptide, C-terminally conjugated to biotin): SVAQATSSSGEA

[31] = biological target: T31, FX activation peptide 12-mer … (human); remark: listed apart in the source
T31 sequence (peptide, C-terminally conjugated to biotin): DAADLDPTENPF

B1: Nb 721E08 (VHH, not shown: small tags and cut ends)
VHH: EVQLVESGGGVVQPGGSLRLSCAASGRTFSTYSMGWFRQAPGKEREFVAAITRRGSRTYYADSVKGRFTISRDNSKNTVYLQMNSLRPEDTALYYCAADRRPADSYLDYWGQGTLVTVSS
**Q.** How did the ELISA signal relative to background [1] turn out when B1 was run?
**A.** 2.3

**Q.** And the ELISA signal relative to background [2]?
**A.** 2.45

**Q.** What about the ELISA signal relative to background [3] of the same binder?
**A.** 2.2

**Q.** What about the ELISA signal relative to background [4] of the same binder?
**A.** 2.15

**Q.** And the ELISA signal relative to background [5]?
**A.** 2.18

**Q.** What about the ELISA signal relative to background [6] of the same binder?
**A.** 2.35

**Q.** What about the ELISA signal relative to background [7] of the same binder?
**A.** 2.05

**Q.** And the ELISA signal relative to background [8]?
**A.** 2.29

**Q.** And the ELISA signal relative to background [9]?
**A.** 2.27

**Q.** What about the ELISA signal relative to background [10] of the same binder?
**A.** 2.35

**Q.** And the ELISA signal relative to background [11]?
**A.** 2.5

**Q.** What about the ELISA signal relative to background [12] of the same binder?
**A.** 2.26

**Q.** And the ELISA signal relative to background [13]?
**A.** 2.13

**Q.** What about the ELISA signal relative to background [14] of the same binder?
**A.** 2.28

**Q.** And the ELISA signal relative to background [15]?
**A.** 3.01

**Q.** What about the ELISA signal relative to background [16] of the same binder?
**A.** 2.01

**Q.** What about the ELISA signal relative to background [17] of the same binder?
**A.** 2.02

**Q.** And the ELISA signal relative to background [18]?
**A.** 2.21

**Q.** And the ELISA signal relative to background [19]?
**A.** 2.54

**Q.** What about the ELISA signal relative to background [20] of the same binder?
**A.** 2.29

**Q.** What about the ELISA signal relative to background [21] of the same binder?
**A.** 2.08

**Q.** And the ELISA signal relative to background [22]?
**A.** 2.4

**Q.** And the ELISA signal relative to background [23]?
**A.** 2.28

**Q.** What about the ELISA signal relative to background [24] of the same binder?
**A.** 2.48

**Q.** What about the ELISA signal relative to background [25] of the same binder?
**A.** 2.16

**Q.** What about the ELISA signal relative to background [26] of the same binder?
**A.** 2.88

**Q.** What about the ELISA signal relative to background [27] of the same binder?
**A.** 2.26

**Q.** And the ELISA signal relative to background [28]?
**A.** 2.25

**Q.** And the ELISA signal relative to background [29]?
**A.** 2.27

**Q.** What about the ELISA signal relative to background [30] of the same binder?
**A.** 2.25

**Q.** What about the ELISA signal relative to background [31] of the same binder?
**A.** 2.3

B2: Nb 729A04 (VHH, not shown: small tags and cut ends)
VHH: EVQLVESGGGVVQPGGSLRLSCAASGFTFSDYAMSWVRQAPGKGLEWVSGITSGGGRTYYADSVKGRFTISRDNSKNTLYLQMNSLRPEDTALYYCAAVRTLGLRGSYDYWGQGTLVTVSS
**Q.** B2 was tested. Which ELISA signal relative to background [8] did it give?
**A.** 1.91

**Q.** And the ELISA signal relative to background [11]?
**A.** 1.41

**Q.** And the ELISA signal relative to background [15]?
**A.** 1.58

B3: Nb 729C08 (VHH, not shown: small tags and cut ends)
VHH: EVQLVESGGGVVQPGGSLRLSCAASGFTFSDYAMSWVRQAPGKGLEWVSGITGGGRTYYADSVKGRFTISRDNSKNTLYLQMNSLRPEDTALYYCAAAILTRTRRTYDYWGQGTLVTVSS
**Q.** Which results are given for B3?
**A.** ELISA signal relative to background [8]: 1.58; ELISA signal relative to background [29]: 1.95

B4: Nb 701C06 (VHH, not shown: small tags and cut ends)
VHH: B1 VHH with S33A, T52S, S56G, R100A, R101T, P102A, A103R, S105G, Y106L
**Q.** Which results are given for B4?
**A.** ELISA signal relative to background [6]: 1.61; ELISA signal relative to background [11]: 1.5; ELISA signal relative to background [15]: 1.41; ELISA signal relative to background [19]: 1.74; ELISA signal relative to background [23]: 1.29; ELISA signal relative to background [26]: 1.56; ELISA signal relative to background [29]: 1.51

B5: Nb 701D07 (VHH, not shown: small tags and cut ends)
VHH: B1 VHH with R27G, F29L, T31R, S33A, R100L, R101A, A103G, S105Y, Y106A
**Q.** B5 was tested. Which ELISA signal relative to background [6] did it give?
**A.** 1.29

**Q.** What about the ELISA signal relative to background [11] of the same binder?
**A.** 1.13

**Q.** And the ELISA signal relative to background [19]?
**A.** 1.44

**Q.** What about the ELISA signal relative to background [23] of the same binder?
**A.** 0.96

**Q.** What about the ELISA signal relative to background [26] of the same binder?
**A.** 1.27

**Q.** And the ELISA signal relative to background [29]?
**A.** 1.39

B6: Nb 730C03 (VHH, not shown: small tags and cut ends)
VHH: B2 VHH with A23V, G55S, L79V, V99A, R100I, T101L, L102R, L104Y, G106K, S107T
**Q.** Which results are given for B6?
**A.** ELISA signal relative to background [6]: 1.62; ELISA signal relative to background [29]: 1.68

B7: Nb 702C12 (VHH, not shown: small tags and cut ends)
VHH: EVQLVESGGGVVQPGGSLRLSCVASGRTFSRYAMGWFRQAPGKEREFVAAISRRGGSTNYADSVKGRFTISRDNSKNTVYLQMNSLRPEDTALYYCAADYSSGDGYLDYWGQGTLVTVSS
**Q.** How did the ELISA signal relative to background [1] turn out when B7 was run?
**A.** 1.88
